Results: patent US20170247475A1 (Boehringer Ingelheim, published 2017)
Like-named read-outs stand apart in the source and are kept apart here.

Tests used:
[1] = molecular target: T1, hAng2; experiment: competition ELISA, blocking of hAng2 binding to hTie2
T1 construct: also called human Ang2
T1 chain: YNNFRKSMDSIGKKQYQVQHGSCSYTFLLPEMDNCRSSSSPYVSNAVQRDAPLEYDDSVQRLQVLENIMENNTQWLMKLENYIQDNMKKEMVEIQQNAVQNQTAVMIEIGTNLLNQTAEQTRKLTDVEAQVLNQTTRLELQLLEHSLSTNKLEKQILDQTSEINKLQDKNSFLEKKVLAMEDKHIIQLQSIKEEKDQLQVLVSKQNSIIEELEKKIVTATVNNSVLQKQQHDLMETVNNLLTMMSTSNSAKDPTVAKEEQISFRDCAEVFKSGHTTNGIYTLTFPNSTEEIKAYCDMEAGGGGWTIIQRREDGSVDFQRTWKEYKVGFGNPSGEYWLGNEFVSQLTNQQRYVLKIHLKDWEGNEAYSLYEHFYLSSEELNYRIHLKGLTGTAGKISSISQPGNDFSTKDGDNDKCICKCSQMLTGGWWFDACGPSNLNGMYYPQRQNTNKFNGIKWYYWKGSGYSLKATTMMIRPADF

[2] = molecular target: T2, cAng2 (cynomolgus monkey); experiment: competition ELISA, blocking of cAng2 binding to cTie2
T2 construct: also called cyno Ang2

[3] = molecular target: T3, mAng2; experiment: competition ELISA, blocking of mAng2 binding to mTie2
T3 construct: also called mouse Ang2
T3 chain: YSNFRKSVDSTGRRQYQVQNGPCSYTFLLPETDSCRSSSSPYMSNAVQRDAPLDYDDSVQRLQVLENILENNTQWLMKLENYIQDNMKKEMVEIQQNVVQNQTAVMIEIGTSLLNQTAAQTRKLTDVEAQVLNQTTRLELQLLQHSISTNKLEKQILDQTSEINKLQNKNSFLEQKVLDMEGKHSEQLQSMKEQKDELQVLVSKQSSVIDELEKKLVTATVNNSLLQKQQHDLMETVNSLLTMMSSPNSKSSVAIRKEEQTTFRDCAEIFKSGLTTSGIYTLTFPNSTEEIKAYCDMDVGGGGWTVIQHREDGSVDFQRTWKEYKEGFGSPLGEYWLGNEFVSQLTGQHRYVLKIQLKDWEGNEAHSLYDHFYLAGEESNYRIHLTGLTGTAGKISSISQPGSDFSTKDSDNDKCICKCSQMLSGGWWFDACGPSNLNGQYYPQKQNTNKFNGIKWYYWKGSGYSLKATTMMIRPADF

[4] = molecular target: T3, mAng2; experiment: as above
[5] = molecular target: T1, hAng2; experiment: competition ELISA, blocking of hAng2 binding to hTie2
[6] = molecular target: T2, cAng2; experiment: competition ELISA, blocking of cAng2 binding to cTie2; remark: listed apart in the source
[7] = molecular target: T4, recombinant human VEGF165 (human, UniProt P15692-4 27-191); experiment: ka1; SPR Biacore T100, hVEGF165 on chip, Two State Reaction model
T4 construct: also called hVEGF165; rhVEGF165
Protocol: (§1) Samples are injected for 2 min and allowed to dissociate up to 20 min at a flow rate of 45 μI/min. In between sample injections, the chip surface is regenerated with 100 mM HCl. HBS-EP+(Hepes buffer pH7.4+EDTA) is used as running buffer. Binding curves are fitted using a Two State Reaction model by Biacore T100 Evaluation Software v2.0.1.
(§2) ^{(a)}KD = kd1/kₐ₁ * (kd2/(kd2 + kₐ₂)) ^{(b)}Curves are fitted using a Two State Reaction model by Biacore T100 Evaluation Software v2.0.1

[8] = molecular target: T4, recombinant human VEGF165; experiment: binding ELISA, coated rhVEGF165
[9] = molecular target: T5, recombinant human VEGF121 (human, UniProt P15692-9 27-147); experiment: binding ELISA, coated rhVEGF121
T5 construct: also called rhVEGF121; hVEGF121
T5 sequence (looked up): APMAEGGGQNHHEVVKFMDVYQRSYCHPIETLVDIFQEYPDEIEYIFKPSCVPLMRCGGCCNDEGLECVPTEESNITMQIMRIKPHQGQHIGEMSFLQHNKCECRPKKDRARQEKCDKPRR
Protocol: Binding to recombinant human VEGF121 is assessed via a solid phase binding ELISA. Briefly, recombinant human VEGF121 (R&D Systems, Minneapolis, Minn., USA) is coated overnight at 4° C. at 1 μg/mL in a 96-well MaxiSorp plate (Nunc, Wiesbaden, Germany). Wells are blocked with a casein solution (1% in PBS).

[10] = molecular target: T6, recombinant mouse VEGF164 (mouse, UniProt Q00731-2 27-190); experiment: binding ELISA on coated mouse VEGF164
T6 construct: biotinylated in the mVEGFR2 AlphaScreen; also called rmVEGF164; mVEGF164
T6 sequence (looked up): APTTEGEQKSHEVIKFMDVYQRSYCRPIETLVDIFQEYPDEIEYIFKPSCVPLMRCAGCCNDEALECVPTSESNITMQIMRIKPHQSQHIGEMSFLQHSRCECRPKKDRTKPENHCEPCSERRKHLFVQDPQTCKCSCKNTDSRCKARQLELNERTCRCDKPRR
Protocol: Cross-reactivity to mouse VEGF164 is determined using a binding ELISA. […] Wells are blocked with a casein solution (1% in PBS). […] A mouse VEGF164 reactive mAb is included as positive control.

[11] = molecular target: T4, recombinant human VEGF165; experiment: kd1; SPR Biacore T100, hVEGF165 on chip, Two State Reaction model
Protocol: as §1, §2

[12] = molecular target: T4, recombinant human VEGF165; experiment: VEGF165/hVEGFR1-Fc competition ELISA
[13] = molecular target: T7, human VEGF-D (human, UniProt O43915 93-201); experiment: binding ELISA on coated VEGF-D
T7 construct: also called hVEGF-D
T7 sequence (looked up): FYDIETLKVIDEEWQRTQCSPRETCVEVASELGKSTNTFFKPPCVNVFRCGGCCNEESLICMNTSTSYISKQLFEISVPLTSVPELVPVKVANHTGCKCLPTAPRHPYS
Protocol: (§3) Binding to VEGFB, VEGFC, VEGFD and PIGF is assessed via a solid phase binding ELISA. In brief, VEGFB, VEGFC, VEGFD and PIGF (R&D Systems, Minneapolis, Minn., USA) are coated overnight at 4° C. at 1 μg/mL in a 96-well MaxiSorp plate (Nunc, Wiesbaden, Germany). Wells are blocked with a casein solution (1% in PBS). […] As positive controls serial dilutions of the appropriate receptors are taken along and detected with horseradish peroxidase (HRP)-conjugated goat anti-human IgG, Fc specific antibody (Jackson Immuno Research Laboratories Inc., West Grove, Pa., USA) and a subsequent enzymatic reaction in the presence of the substrate TMB (3,3′,5,5′-tetramentylbenzidine) (Pierce, Rockford, Ill., USA).

[14] = molecular target: T4, recombinant human VEGF165; experiment: SPR Biacore T100, hVEGF165 on chip, Two State Reaction model
Protocol: as §1, §2

[15] = molecular target: T8, human PIGF (human, UniProt P49763-2 21-149, limits assumed); experiment: binding ELISA on coated PIGF
T8 construct: also called hPIGF; PLGF
T8 sequence (looked up): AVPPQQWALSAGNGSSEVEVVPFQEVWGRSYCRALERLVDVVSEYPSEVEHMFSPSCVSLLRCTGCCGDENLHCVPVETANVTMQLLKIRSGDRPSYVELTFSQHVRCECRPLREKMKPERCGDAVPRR
Protocol: as §3

[16] = molecular target: T4, recombinant human VEGF165; experiment: VEGF165/hVEGFR1-Fc competition AlphaScreen
Protocol: (§4) Finally, streptavidin donor beads (20 μg/ml) are added and after 1 hour of incubation in the dark, fluorescence is measured on the Envision microplate reader.

[17] = molecular target: T4, recombinant human VEGF165; experiment: SPR Biacore T100, Two State Reaction model; KD = kd1/ka1 * (kd2/(kd2 + ka2))
Protocol: as §1, §2

[18] = molecular target: VEGF; experiment: cell-based or functional assay
[19] = molecular target: T4, recombinant human VEGF165; experiment: hVEGF165/hVEGFR2-Fc competition AlphaScreen
Protocol: as §4

[20] = molecular target: T9, human VEGF-C (human, UniProt P49767 103-227); experiment: binding ELISA on coated VEGFC
T9 construct: also called hVEGF-C
T9 sequence (looked up): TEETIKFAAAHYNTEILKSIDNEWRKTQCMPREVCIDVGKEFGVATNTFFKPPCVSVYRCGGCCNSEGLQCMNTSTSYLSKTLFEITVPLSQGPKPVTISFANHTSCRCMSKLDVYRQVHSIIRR

[21] = molecular target: VEGF; experiment: cell-based or functional assay; remark: listed apart in the source
[22] = molecular target: T10, human VEGF-B (human, UniProt P49765-2 22-188, limits assumed); experiment: binding ELISA on coated VEGFB
T10 construct: also called hVEGF-B
T10 sequence (looked up): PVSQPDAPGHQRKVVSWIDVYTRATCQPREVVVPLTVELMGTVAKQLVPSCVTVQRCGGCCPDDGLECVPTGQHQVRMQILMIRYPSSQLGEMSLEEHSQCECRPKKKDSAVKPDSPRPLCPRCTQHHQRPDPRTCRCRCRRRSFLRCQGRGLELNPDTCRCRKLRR
Protocol: as §3

[23] = molecular target: T4, recombinant human VEGF165; experiment: hVEGF165/hVEGFR2-Fc competition ELISA

B1: ANGBII00003 (VHH)
bivalent VHH: EVQLVESGGGLVQVGDSLRLSCAASGRTFSTYLMVGWFRQAPGKEREFAAGIWSSGDTAYADSVRGRFTISRDNAKNTVYLQMNSLKTEDTAVYYCAGSYDGNYYIPGFYKDWGQGTLVTVSSGGGGSGGGSEVQLVESGGGLVQVGDSLRLSCAASGRTFSTYLMVGWFRQAPGKEREFAAGIWSSGDTAYADSVRGRFTISRDNAKNTVYLQMNSLKTEDTAVYYCAGSYDGNYYIPGFYKDWGQGTLVTVSS
notes: homodimeric anti-Ang2 VHH; also called 11B07-9gs-11B07
- IC50 (read off the curve) [1]: ~0.03 nM
- IC50 (read off the curve) [2]: ~0.03 nM
- IC50 (read off the curve) [3]: ~0.04 nM

B2: ANGBII00004 (VHH)
bivalent VHH: EVQLVESGGGLVQAGGSLRLSCAASGFTLDDYAIGWFRQAPGKEREGVSSIRDNDGSTYYADSVKGRFTISSDNDKNTVYLQMNSLKPEDTAVYYCAAVPAGRLRFGEQWYPLYEYDAWGQGTLVTVSSGGGGSGGGSEVQLVESGGGLVQAGGSLRLSCAASGFTLDDYAIGWFRQAPGKEREGVSSIRDNDGSTYYADSVKGRFTISSDNDKNTVYLQMNSLKPEDTAVYYCAAVPAGRLRFGEQWYPLYEYDAWGQGTLVTVSS
notes: homodimeric anti-Ang2 VHH; also called 00027-9gs-00027
- IC50 (read off the curve) [4]: ~0.03 nM
- IC50 (read off the curve) [5]: ~0.01 nM
- IC50 (read off the curve) [6]: ~0.04 nM

B3: VEGFBII010 (VHH)
chain: EVQLVESGGGLVQTGDSLRLSCEVSGRTFSSYSMGWFRQAQGKEREFVVAISKGGYKYDSVSLEGRFTISKDNAKNTVYLQINSLKPEDTAVYYCASSRAYGSSRLRLADTYEYWGQGTQVTVSSGGGGSGGGGSGGGGSGGGGSGGGGSGGGGSGGGGSEVQLVESGGGLVQTGDSLRLSCEVSGRTFSSYSMGWFRQAQGKEREFVVAISKGGYKYDSVSLEGRFTISKDNAKNTVYLQINSLKPEDTAVYYCASSRAYGSSRLRLADTYEYWGQGTQVTVSS
notes: bivalent VHH in one chain; also called VEGFBII23B04-35GS-23B04; homodimeric VEGFBII23B04
- kon [7]: 450000 M⁻¹ s⁻¹
- EC50 [8]: 0.428 nM
- EC50 [9]: 0.92 nM
- binding result [10]: binds
- koff [11]: 0.017 s⁻¹
- % inhibition [12]: 67%
- IC50 [12]: 0.0735 nM
- binding result [13]: no binding (tested: 5e-7 M)
- ka2 [14]: 0.029 s⁻¹
- kd2 [14]: 0.00013 s⁻¹
- binding result [15]: no binding (tested: 5e-7 M)
- % inhibition [16]: 70%
- IC50 [16]: 0.021 nM
- Kd [17]: 0.16 nM
- % inhibition, VEGF HUVEC Erk phosphorylation assay [18]: 92%
- IC50 (nM), VEGF HUVEC Erk phosphorylation assay [18]: 0.19 nM
- % inhibition [19]: 100%
- IC50 [19]: 0.016 nM
- binding result [20]: no binding (tested: 5e-7 M)
- % inhibition, VEGF HUVEC proliferation assay [21]: 95%
- IC50 (nM), VEGF HUVEC proliferation assay [21]: 0.22 nM
- binding result [22]: no binding (tested: 5e-7 M)
- % inhibition [23]: 100%
- IC50 [23]: 0.049 nM
